“Also recorded” adds a separate entry of the source.
What was measured:
wildtype mice = experiment: Complete blood count and flow cytometry of peripheral blood and bone marrow of treated mice; type: in vivo; conditions: administration of vitamin K1, P=0.04
Protocol: (§1) 0.5 mg/kg/d or 0.05 mg/kg/d of warfarin, resuspended in phosphate-buffered saline was administered to mice via subcutaneously implanted osmotic minipumps (ALZET minipumps, Cupertino, CA). The osmotic minipumps were changed after 14 days (if the experiment went beyond 14 days of treatment). Sham operated (skin incision and suture) mice served as controls. Warfarin treatment continued for 10-14 days. In the xenotransplantation experiments the mice were treated with warfarin via the drinking water (or normal drinking water) at a dose of 0.72 mg/100 ml for a total of 3 days a week (Pfeilschifter et al., 2011).
(§2) 5-fluorouracil was intraperitoneally injected every week at a dose of 75 mg/kg for a total of 4 doses or as a one time dose of 200 mg/kg. Recombinant mouse periostin (R&D Systems, Minneapolis, MN, cat. no. 2955-F2), produced in the Sf21 (baculovirus)-derived insect cell line, was administered intravenously at a dose of 2-4 μg per day and vitamin K was given at a dose of 15 mg/kg by oral gavage for four consecutive days.
We assessed the complete blood count of vehicle or warfarin-treated mice using a complete blood count analyzer (Scil Vet ABC, Gurnee, IL). Peripheral blood and bone marrow samples were stained with antibodies for flow cytometry, which was performed on a BD LSR Fortessa (BD Biosciences, Heidelberg, Germany). The lineage antibody cocktail contained antibodies to B220, CD5, Ter119, F4/80 and CD11b. Engraftment of human cells in NSG mice was assessed using anti-human CD45 (BD Biosciences, San José, CA).

HSC = experiment: Competitive transplantation of bone marrow from periostin- or vitamin K-treated donor mice; type: in vivo; conditions: for percentage of LKS cells, cell cycle of transplanted LKS cells, number of colonies in methylcellulose: previously treated bone marrow cells compared to vehicle
Protocol: as §2
SJL (CD45.1) donor mice were treated with vehicle or warfarin, euthanized and long bones were flushed, followed by RBC lysis (Life Technologies, Darmstadt, Germany). For competitive transplantation 2×10^6 total BM cells from SJL mice were co-transplanted with 1×10^6 CD45.2+ BM competitor cells into lethally irradiated (900 cGy) C57BL/6N (CD45.2+) recipient mice. For serial transplantation 2×10^6 total CD45.1+ BM cells were transplanted into lethally irradiated C57BL/6N recipient mice. Cell engraftment and chimerism were assessed by flow cytometry of peripheral blood leukocytes for CD45.1 and CD45.2 after 4, 8, 12 and 16 weeks post transplantation. In the limiting dilution experiment we treated primary CD45.1+ donor mice with vehicle or warfarin for 14 days and, consequently, transplanted 5×10^5, 12.5×10^4, 6×10^4 and 1.5×10^4 pooled BM cells into 5 CD45.2+ recipients per group adding 5×10^5 CD45.2+ supporter cells. In indicated experiments we transplanted 5,000 or 10,000 sorted CD45.1+ LKS cells from mice treated with vehicle or warfarin plus 1×10^6 CD45.2+ total BM supporter cells into CD45.2+ recipient mice.

integrin β3 = target: T1, integrin β3 (Mus musculus, UniProt O54890+P43406); experiment: Inhibition of integrin β3 by cilengitide, pAKT in Lin− cells cocultured on BM stroma; type: cell-based, mice; conditions: cilengitide 0.05 μM, coculture on BM stroma cells, P=0.03
T1 construct: endogenous in cells; host or cells: murine Lin− bone marrow cells cocultured on murine BM stroma cells
Protocol: (§3) Concentrations of drugs for in vitro use were 2 μM for warfarin, 2 μg/ml for periostin, 5 μM for the AKT inhibitor MK-2206 (Selleck Chemicals, Houston, TX) and cilengitide (Selleck Chemicals, Houston, TX, Cat. No. #S7077) was used at 0.05 μM. Phosphate buffered saline served as the vehicle control.
The PE-labelled anti-pAKT antibody (Cell signaling, #5315, Danvers, MA) was used for intracellular flow cytometry after fixation and permeabilization of the cells.

patients = experiment: Peripheral blood counts of patients on VKA versus control patients; type: in vivo, human
From the text: For FIGS. 6C-6H: Data of patients on VKA were obtained from the French health care databases. Patients with hematological disease, inflammation or sepsis were excluded. Patients admitted to the hospital for dermatological problems without hematological disease or sepsis acted as controls.

Lin− cells [1] = experiment: Plating of warfarin-exposed Lin− cells on untreated versus warfarin-treated stroma, with or without MK-2206; type: cell-based, mice; conditions: MK-2206 5 μM added to cocultures, P=0.02
[2] = system: hematopoietic cells from murine bone marrow; experiment: In vitro rescue experiment with periostin in stroma/Lin− cocultures; type: cell-based; conditions: for absolute number of hematopoietic cells in coculture: 2 μg/ml periostin added, warfarin-treated stroma, 5 days, P=0.02
Protocol: as §3
To test the direct effect of warfarin on hematopoietic cells 100,000 Lin− cells were cultured in 2 μM vehicle or warfarin in the absence of stroma cells for a total of 7 days. For the in vitro rescue experiment with periostin stroma cells were grown in warfarin for 14 days, before vehicle or periostin were added.

[3] = system: LKS cells and myeloid cells; experiment: In vivo administration of periostin to mice treated with warfarin
Protocol: as §1, §2
For cell cycle analysis cells were permeabilized and fixed with the cytoperm/cytofix kit (BD Biosciences, San Jose, CA), followed by staining with an antibody to Ki67-PE (Biolegend, San Diego, CA) overnight at 4 C. Consequently, cells were washed and resuspended in PBS with DAPI (1 ng/ml). For detection of apoptosis cells were first stained for surface markers, washed with Annexin V buffer (Life Technologies, Darmstadt, Germany), stained with Annexin V-PE (Life Technologies, Darmstadt, Germany), washed with Annexin V binding buffer, resuspended in PBS with DAPI and analyzed.

Lin− cells [4] = experiment: Adhesion assay of Lin− cells to stroma cells; type: cell-based, mice; conditions: periostin added, warfarin- and more prominently vehicle-treated conditions, P=0.03
From the text: In vivo administration of periostin to mice treated with warfarin also ‘rescued’ the number of LKS cells positive for integrin β3, whose binding to its ligand periostin (Gillan et al., 2002) is known to mediate HSC support (P=0.0013; FIG. 5A) (Khurana and Verfaillie, 2013). […] In order to test, whether the periostin/integrin β3-axis mediates the adhesion of HSPC to stroma, the inventors performed an adhesion assay plating untreated Lin− cells on vehicle- or warfarin-treated stroma cells in the presence or absence of periostin. […] Due to the role of pAKT, which lies downstream of integrin β3 (Hynes, 2002), in periostin-mediated cell survival (Bao et al., 2004) the inventors tested the effect of inhibition of integrin β3 by cilengitide on pAKT in Lin− cells after coculture on BM stroma cells. Similar to the reduction of pAKT+ Lin− cells in mice treated with warfarin (FIG. 3A), inhibition of integrin β3 led to a decrease of pAKT in Lin− cells (P=0.03).
as §3

T1 sequence (O54890 26-787): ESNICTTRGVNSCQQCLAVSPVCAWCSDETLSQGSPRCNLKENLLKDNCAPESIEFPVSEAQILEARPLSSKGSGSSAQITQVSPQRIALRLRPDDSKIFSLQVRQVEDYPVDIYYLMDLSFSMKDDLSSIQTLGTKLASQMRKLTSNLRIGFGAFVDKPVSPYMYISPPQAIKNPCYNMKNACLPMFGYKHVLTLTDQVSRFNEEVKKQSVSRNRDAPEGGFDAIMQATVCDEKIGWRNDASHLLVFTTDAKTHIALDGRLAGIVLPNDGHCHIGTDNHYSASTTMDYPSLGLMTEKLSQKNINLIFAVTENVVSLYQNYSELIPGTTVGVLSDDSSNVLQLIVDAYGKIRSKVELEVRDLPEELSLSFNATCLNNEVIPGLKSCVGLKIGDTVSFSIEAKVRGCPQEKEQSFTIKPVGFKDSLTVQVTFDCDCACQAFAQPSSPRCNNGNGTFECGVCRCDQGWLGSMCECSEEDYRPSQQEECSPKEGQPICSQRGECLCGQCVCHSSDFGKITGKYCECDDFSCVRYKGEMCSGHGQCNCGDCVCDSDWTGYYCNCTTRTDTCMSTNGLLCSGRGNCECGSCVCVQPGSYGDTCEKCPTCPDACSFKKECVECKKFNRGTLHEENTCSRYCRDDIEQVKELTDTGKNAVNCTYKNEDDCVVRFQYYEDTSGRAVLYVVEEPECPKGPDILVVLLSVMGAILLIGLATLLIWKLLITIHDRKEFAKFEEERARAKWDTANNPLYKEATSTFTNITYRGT
T1 sequence (P43406 31-885 limits assumed): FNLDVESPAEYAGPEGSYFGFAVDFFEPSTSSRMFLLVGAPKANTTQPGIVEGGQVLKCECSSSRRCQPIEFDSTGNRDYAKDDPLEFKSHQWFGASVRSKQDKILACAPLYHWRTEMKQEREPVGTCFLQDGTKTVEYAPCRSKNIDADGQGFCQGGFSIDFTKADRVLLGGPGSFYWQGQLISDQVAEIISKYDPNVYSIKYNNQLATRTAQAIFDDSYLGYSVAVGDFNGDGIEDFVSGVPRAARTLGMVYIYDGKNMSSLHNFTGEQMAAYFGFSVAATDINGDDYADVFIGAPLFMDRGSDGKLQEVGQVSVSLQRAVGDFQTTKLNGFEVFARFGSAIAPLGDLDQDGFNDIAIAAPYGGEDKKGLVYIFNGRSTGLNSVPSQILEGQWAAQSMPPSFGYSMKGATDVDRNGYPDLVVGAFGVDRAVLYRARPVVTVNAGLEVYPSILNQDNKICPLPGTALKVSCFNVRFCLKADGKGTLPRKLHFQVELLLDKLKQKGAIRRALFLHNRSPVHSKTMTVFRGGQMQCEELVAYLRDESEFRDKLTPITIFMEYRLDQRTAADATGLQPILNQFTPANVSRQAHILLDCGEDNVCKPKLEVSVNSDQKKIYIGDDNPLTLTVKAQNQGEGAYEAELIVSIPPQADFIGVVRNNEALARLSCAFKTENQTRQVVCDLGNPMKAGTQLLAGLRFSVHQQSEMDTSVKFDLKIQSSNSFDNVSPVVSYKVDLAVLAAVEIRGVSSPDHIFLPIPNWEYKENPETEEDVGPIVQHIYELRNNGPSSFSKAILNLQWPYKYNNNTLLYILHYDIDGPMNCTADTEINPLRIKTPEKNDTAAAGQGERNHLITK
T1 sequence (P43406 887-1044 partner limits assumed): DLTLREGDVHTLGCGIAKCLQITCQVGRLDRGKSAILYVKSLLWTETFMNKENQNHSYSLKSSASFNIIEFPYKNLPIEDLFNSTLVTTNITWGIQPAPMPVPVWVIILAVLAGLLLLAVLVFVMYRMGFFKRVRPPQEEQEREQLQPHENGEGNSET

CC1=C(C/C=C(\C)CCC[C@H](C)CCC[C@H](C)CCCC(C)C)C(=O)c2ccccc2C1=O [vitamin K1]
decreased percentage of myeloid cells in previously warfarin-treated mice (wildtype mice): rescued | percentage of LKS cells, cell cycle of transplanted LKS cells, number of colonies in methylcellulose (HSC): did not lead to an increase | engraftment of donor cells (HSC; treatment of donor mice with vitamin K prior to competitive transplantation): did not lead to increased engraftment

CC(C)[C@H]1C(=O)N[C@@H](CCCN=C(N)N)C(=O)NCC(=O)N[C@@H](CC(=O)O)C(=O)N[C@H](Cc2ccccc2)C(=O)N1C [cilengitide]
pAKT in Lin− cells (integrin β3): decrease

O=C1c2ccccc2C(=O)C1c1ccc(F)cc1 [fluindione]
absolute number of leukocytes (patients; 282 patients on warfarin (P=0.0007) or 89 on fluindione (P=0.029) vs 145 control patients): reduced | absolute number of monocytes (patients; 282 patients on warfarin (P=0.004) or 89 on fluindione (P=0.046) vs 145 control patients): reduced | platelets (patients; warfarin- or fluindione-treated patients): not reduced

NC1(c2ccc(-c3nc4ccn5c(=O)[nH]nc5c4cc3-c3ccccc3)cc2)CCC1 [MK-2206]
temporary recovery of warfarin-exposed Lin− cells on untreated stroma (Lin− cells [1]): prevented

B1: periostin: Recombinant mouse periostin (R&D Systems, cat. no. 2955-F2), produced in the Sf21 (baculovirus)-derived insect cell line (protein)
chain: NSYYDKVLAHSRIRGRDQGPNVCALQQILGTKKKYFSSCKNWYQGAICGKKTTVLYECCPGYMRMEGMKGCPAVMPIDHVYGTLGIVGATTTQHYSDVSKLREEIEGKGSYTYFAPSNEAWENLDSDIRRGLENNVNVELLNALHSHMVNKRMLTKDLKHGMVIPSMYNNLGLFINHYPNGVVTVNCARVIHGNQIATNGVVHVIDRVLTQIGTSIQDFLEAEDDLSSFRAAAITSDLLESLGRDGHFTLFAPTNEAFEKLPRGVLERIMGDKVASEALMKYHILNTLQCSEAITGGAVFETMEGNTIEIGCEGDSISINGIKMVNKKDIVTKNGVIHLIDEVLIPDSAKQVIELAGKQQTTFTDLVAQLGLASSLKPDGEYTLLAPVNNAFSDDTLSMDQRLLKLILQNHILKVKVGLSDLYNGQILETIGGKQLRVFVYRTAICIENSCMVRGSKQGRNGAIHIFREIIQPAEKSLHDKLRQDKRFSIFLSLLEAADLKDLLTQPGDWTLFAPTNDAFKGMTSEERELLIGDKNALQNIILYHLTPGVYIGKGFEPGVTNILKTTQGSKIYLKGVNETLLVNELKSKESDIMTTNGVIHVVDKLLYPADIPVGNDQLLELLNKLIKYIQIKFVRGSTFKEIPMTVYRPAMTKIQIEGDPDFRLIKEGETVTEVIHGEPVIKKYTKIIDGVPVEITEKQTREERIITGPEIKYTRISTGGGETGETLQKFLQKEVSKVTKFIEGGDGHLFEDEEIKRLLQGDTPAKKIPANKRVQGPRRRSREGRSQ
absolute number of hematopoietic cells in coculture [2]: increase of the number of hematopoietic cells | absolute number of hematopoietic cells in coculture ([2]; listed as recombinant periostin): restored | percentage of LKS cells in warfarin-treated cultures ([2]; periostin added, P=0.056): strong trend towards restoration | engraftment of CD45.1+ bone marrow (ratio CD45.1/CD45.2) (HSC; donor treated for four days, four weeks after transplantation, P=0.02): increased engraftment | engraftment of CD45.1+ bone marrow (HSC; later time points (data not shown)): not at later time points | percentage of LKS cells, cell cycle of transplanted LKS cells, number of colonies in methylcellulose (HSC): did not lead to an increase | annexin V+ apoptotic LKS cells ([3]; periostin and warfarin (or vehicle) vs warfarin (or vehicle) alone, P=0.02): significantly reduced | median fluorescence intensity of integrin β3 on LKS cells ([3]; periostin to warfarin-treated mice): remained unchanged | percentage of myeloid cells in peripheral blood ([3]; periostin to warfarin-treated mice, 4 day treatment, P=0.007): rescued; also recorded: increase of the percentage of myeloid cells | number of LKS cells positive for integrin β3 ([3]; periostin to warfarin-treated mice, P=0.0013): rescued | adhesion of Lin− cells to stroma (Lin− cells [4]): restored or augmented
